Results reported in article PMC3154637 (Structure (London, England : 1993), 2011).

B1: GST-CHMP1AΔN (domain or fragment, UniProt Q9HD42 123-196, looked up)
chain: DVHTSVMEDSMSSATTLTTPQEQVDSLIMQIAEENGLEVLDQLSQLPEGASAVGESSVRSQEDQLSRRLAALRN
B2: GST-CHMP1BΔN (domain or fragment, UniProt Q7LBR1 126-199, looked up)
chain: DVQTQQMEDTMSSTTTLTTPQNQVDMLLQEMADEAGLDLNMELPQGQTGSVGTSVASAEQDELSQRLARLRDQV

Assays:
[1] = biological target: MBP-AMSH(1–206) (human, UniProt O95630 1-206); assay: SPR
[2] = biological target: His-AMSHΔC-K88A (human, UniProt O95630 1-146, K88A); assay: pull-down

Binder	Kd [1] [µM]	koff [1] [s⁻¹]	kon [1] [M⁻¹ s⁻¹]	binding result [2]
B1	1.49	0.00581	3890	
B2				binds
